From publication PMC5934362

Legend:
Assay in all cases: ITC; 308 K; 50 mM HEPES pH 7.5, 0.5 mM CaCl2, 0.5 mM TCEP; TrxADocScaA variant in the cell, titrated with 28 injections of 10 uL CohScaB5; single-site model
[1] = target: TrxADocScaA V721A (Ruminococcus flavefaciens FD-1)
[2] = target: TrxADocScaA V666A (Ruminococcus flavefaciens FD-1)
[3] = target: TrxADocScaA V662 + V666 + V721 triple mutant (Ruminococcus flavefaciens FD-1)
[4] = target: TrxADocScaA V666 + V721 double mutant (Ruminococcus flavefaciens FD-1)
[5] = target: TrxADocScaA V662 + V666 double mutant (Ruminococcus flavefaciens FD-1)
[6] = target: TrxADocScaA V662A (Ruminococcus flavefaciens FD-1)
[7] = target: TrxADocScaA N661A (Ruminococcus flavefaciens FD-1)
[8] = target: TrxADocScaA V662 + V721 double mutant (Ruminococcus flavefaciens FD-1)
[9] = target: TrxADocScaA H722A (Ruminococcus flavefaciens FD-1)
[10] = target: TrxADocScaA wild type (dockerin of primary scaffoldin ScaA fused to N-terminal thioredoxin A) (Ruminococcus flavefaciens FD-1)
Chain of TrxADocScaA wild type (dockerin of primary scaffoldin ScaA fused to N-terminal thioredoxin A) (Ruminococcus flavefaciens FD-1) (main, as listed by the source): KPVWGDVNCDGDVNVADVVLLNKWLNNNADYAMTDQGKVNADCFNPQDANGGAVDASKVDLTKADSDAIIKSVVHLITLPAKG

[11] = target: TrxADocScaA K670A (Ruminococcus flavefaciens FD-1)
[12] = target: TrxADocScaA N669A (Ruminococcus flavefaciens FD-1)

With “RfCohScaB5 (fifth cohesin of adaptor scaffoldin ScaB), expressed alone with a C-terminal hexa-histidine tag (domain or fragment)” the Ka [1] was 5.1e+08 M⁻¹, the dH [1] was -48.7 kcal/mol and the stoichiometry N [1] was 0.95. The Ka [2] was 4.07e+08 M⁻¹, the dH [2] was -56.6 kcal/mol and the stoichiometry N [2] was 1.02. The Ka [3] was 291000 M⁻¹, the dH [3] was -64.8 kcal/mol and the stoichiometry N [3] was 1.04. It also gave a Ka [4] of 2.25e+07 M⁻¹, a dH [4] of -56.5 kcal/mol and a stoichiometry N [4] of 1.01. The Ka [5] was 1.98e+07 M⁻¹, the dH [5] was -67.5 kcal/mol and the stoichiometry N [5] was 0.98. It also gave a Ka [6] of 4.78e+08 M⁻¹, a dH [6] of -68.4 kcal/mol and a stoichiometry N [6] of 1.02. The Ka [7] was 2.64e+06 M⁻¹, the dH [7] was -82.5 kcal/mol and the stoichiometry N [7] was 0.98. The Ka [8] was 6.24e+07 M⁻¹, the dH [8] was -64.3 kcal/mol and the stoichiometry N [8] was 1.08. For the same substance, the Ka [9] was 2.73e+08 M⁻¹, the dH [9] was -72.4 kcal/mol and the stoichiometry N [9] was 1. The Ka [10] was 4.02e+08 M⁻¹, the dH [10] was -66.7 kcal/mol and the stoichiometry N [10] was 1.01. The Ka [11] was 3.67e+08 M⁻¹, the dH [11] was -75.1 kcal/mol and the stoichiometry N [11] was 1.02. The Ka [12] was 3.16e+08 M⁻¹, the dH [12] was -73.4 kcal/mol and the stoichiometry N [12] was 1.01.
